From publication PMC8546961, “Cofactor Specificity of Glucose-6-Phosphate Dehydrogenase Isozymes in Pseudomonas putida Reveals a General Principle Underlying Glycolytic Strategies in Bacteria” (mSystems, 2021)
Read-outs that look alike come from different tables or passages of the source.

B1: G6PDH-B (Pseudomonas putida KT2440) (protein)
chain: MTKQTLAAAPPCTLFLFGANGDLVKRLLMPALYNLSRDGLLDRNLRIVGVDHNPASAEDFAARLHAFMVERDKGGEGSAKCLDEKLWARLAKRLDYQTGDFLDPATYQALARRIDKTRHGNAIFYLATSPRFFPEVAQRLGQAGLLDESAGGFRRVVVEKPFGTDLASAEALNACLLKVMGERQIYRIDHYLGKETVQNILVSRFSNGLFESFWNNHYIDHVQITAAETVGVETRGAFYDSTGALRDMVPNHLFQLLAMVAMEPPAAFGADAVRGEKAKVVGAIRPWSAKMAQKNSVRGQYRAGKQGRKPLPGYRQEPNVAPDSQTETYVALKVMIDNWRWAGVPFYLRTGKRMSVRDTEIAICFKPAPYAQFRESELERPKPNYLKIQIQPNEGMWFDLQAKRPGPELVMENVELGFAYKDFFKMTPATGYETLIYDCLTGDQTLFQRADNIENGWRAVQPFLDAWAQGGEVHEYSAGEDGPEAGNELLTRDKREWHRLG
B2: G6PDH-C (Pseudomonas putida KT2440) (protein)
chain: MESGGLTIPCDILVFGGTGDLALHKLLPALYHLFREARLNPAVRVIALARRNLPRIDYLKLAERHCRAQIARSDFDEEVWQRFSARVDYFPMDASQSADFGRLARYLGEPGGLTRIFYLATAPNLFVPIANHLRIAGLADTEARIVLEKPIGHSLESATAINEAIGTVFEERQVFRIDHYLGKETVQNLMALRFANALLEPVWRNNQVDHVQISVCETLGVENRGAYYDRAGAIRDMLQNHLLQLLCLVAMEPPAQFEAEAVRDEKVKILRALKPITGQDVQDKTVRGQYGAGRIGGQEVPAYYFEKDVDNDSDTETFVAIEAHIDNWRWAGVPFYLRTGKRMARRASQIVIQFKPVPHELFSGGQVNQLLIQLQPDERISLRMMTKSPGKGMRLEPVDLDLNLAQVFSQTRRWEAYERLLLDVLEGDSTLFMRRDEVEAAWAWVDPIIKGCEEHFQAPRPYPAGSFGPEQANSLLARHGRHWHG

How the values were obtained:
[1] = biological target: T1, G6PDH-B (Pseudomonas putida, UniProt Q88FP7); assay: initial rates, NAD(P)H formation at […] nm, global fit (DYNAFIT), rapid-equilibrium random-ordered model; assay type: biochemical; conditions: buffer A (50 mM Tris-HCl, 5 mM NaCl, 5 mM MgCl2, 5% glycerol), pH 8.0, 30°C, G6P varied
T1 construct: gene zwfB
T1 sequence (Q88FP7 1-501): B1 chain

[2] = biological target: T2, G6PDH-C (Pseudomonas putida, UniProt Q88C32); assay: as above; assay type: biochemical; conditions: buffer A (50 mM Tris-HCl, 5 mM NaCl, 5 mM MgCl2, 5% glycerol), pH 8.0, 30°C, G6P varied
T2 construct: gene zwf
T2 sequence (Q88C32 1-485): B2 chain

[3] = substrate: NC(=O)c1ccc[n+]([C@@H]2O[C@H](COP(=O)(O)OP(=O)(O)OC[C@H]3O[C@@H](n4cnc5c(N)ncnc54)[C@H](OP(=O)(O)O)[C@@H]3O)[C@@H](O)[C@H]2O)c1; assay: purified protein; assay type: biochemical, Pseudomonas putida; conditions: G6P co-substrate, buffer A (50 mM Tris-HCl, 5 mM NaCl, 5 mM MgCl2, 5% glycerol), pH 8.0, 30°C
[4] = substrate: NC(=O)c1ccc[n+]([C@@H]2O[C@H](COP(=O)(O)OP(=O)(O)OC[C@H]3O[C@@H](n4cnc5c(N)ncnc54)[C@H](O)[C@@H]3O)[C@@H](O)[C@H]2O)c1; assay: purified protein; assay type: biochemical, Pseudomonas putida; conditions: G6P co-substrate, buffer A (50 mM Tris-HCl, 5 mM NaCl, 5 mM MgCl2, 5% glycerol), pH 8.0, 30°C
[5] = dissociation constant of NADP+ from free enzyme, read-out: NADP^+ / Ki
[6] = dissociation constant of NAD+ from free enzyme, read-out: NAD^+ / Ki

Molecule | Kd [1, 5] [µM] | Kd [2, 5] [µM] | Kd [1, 6] [µM] | Kd [2, 6] [µM] | Km [3] [µM] | kcat [3] [s^–1] | Km [4] | kcat [4] [s^–1]
NC(=O)c1ccc[n+]([C@@H]2O[C@H](COP(=O)(O)OP(=O)(O)OC[C@H]3O[C@@H](n4cnc5c(N)ncnc54)[C@H](OP(=O)(O)O)[C@@H]3O)[C@@H](O)[C@H]2O)c1 [NADP^+] | 790 ± 110 | 9.2 ± 1.9 | – | – | – | – | – | –
NC(=O)c1ccc[n+]([C@@H]2O[C@H](COP(=O)(O)OP(=O)(O)OC[C@H]3O[C@@H](n4cnc5c(N)ncnc54)[C@H](O)[C@@H]3O)[C@@H](O)[C@H]2O)c1 [NAD^+] | – | – | 301 ± 48 | 5800 | – | – | – | –
B1 | – | – | – | – | 165 ± 11 | 113 ± 1 | 151 ± 7 µM | 120 ± 1
B2 | – | – | – | – | 3.2 ± 0.7 | 0.54 ± 0.02 | (9.5 ± 1.1)×10^3 μM | 0.77 ± 0.04
